Reference: patent US10323078B2, “Isolated peptides and fragments thereof from fibrinogen for use as drugs, particularly in skin inflammatory diseases” (Universite Paris Descartes, priority 2015, dated 2019)

Tests used:
NHDK cells = assay: IL-1β production by P. acnes-stimulated NHDK (ELISA); assay type: cell-based, human; conditions: P. acnes 6919, set I, bacteria first pretreated, 0.87 to 7 μM
Experimental: (§1) For experiences of stimulation with P. acnes, cells were incubated with the P. acnes suspension adjusted at the appropriate concentration, pre-treated for 1 h at 37° C. or not with fibrinogen recombinant peptides Fg1 and Fg2 at the concentrations 0.87, 1.75, 3.5 or 7 μM for the desired period of time at 37° C. in 5% CO2.
(§2) Human IL-1ß, IL-8, IL-12, hBD-2, and TNF-α protein concentration was measured in the supernatants of stimulated cells using various ELISA Set kits (Ready-Set-Go kit from eBioscience for acne experiments, and for psoriasis experiments the Duo set IL-8 kit from R&D Systems and the BD-2 Human Development (hBD-2) from Peprotech) according to the manufacturer's instructions. We used serial dilutions of recombinant human IL-1ß, IL-8, IL-12 and TNF-α for standard curve. The optical density was determined at 450 nm at a wavelength correction of 540 nm.
(§3) To assess the efficacy of Fg1 recombinant peptide, the production of O2^∘− and H2O2 by HaCaT cells NHDK, THP-1, MRC5 and HDF stimulated by pretreated P. acnes strains 6919, RON and PIE was measured. The amount of ROS produced was compared to that produced by the stimulated cells with untreated bacteria. Production baseline was obtained by measuring ROS on unstimulated cells. The production of IL-1ß, IL-8, IL-12 and TNF-α was also measured in all conditions cited above. […]

HaCaT cells = assay: IL-8 production by P. acnes-stimulated HaCaT (ELISA); assay type: cell-based, human; conditions: 0.87 to 7 μM
Experimental: as §1, §2
To assess the efficacy of Fg1 recombinant peptide, the production of O2^∘− and H2O2 by HaCaT cells NHDK, THP-1, MRC5 and HDF stimulated by pretreated P. acnes strains 6919, RON and PIE was measured. The amount of ROS produced was compared to that produced by the stimulated cells with untreated bacteria. Production baseline was obtained by measuring ROS on unstimulated cells. The production of IL-1ß, IL-8, IL-12 and TNF-α was also measured in all conditions cited above. The measurement of the production of ROS is performed by spectrofluorimetry in the presence of specific fluorochromes directly on the monolayer cell. Measurement of cytokine production was performed in parallel on the cell culture supernatant.
Two sets of experiments were implemented: 1) The cells were stimulated (18 h at 37° C.) by P. acnes strains previously pretreated with Fg1 and Fg2 peptides at the final concentrations ranging from 0.87 to 7 μM for 1 h at 37° C.; and 2) The cells were pretreated first with Fg1 and Fg2 peptides at the final concentrations ranging from 0.87 to 7 μM for 24 h at 37° C. and stimulated (18 h at 37° C.) by P. acnes strains. […]
Immortalized keratinocytes HaCaT cell were seeded in 96-well plates at 10^5 cells/well (Corning Costar, Brumath, France) and stimulated with P. acnes 6919 strain (O.D.620 nm=0.3) pretreated 1 h at 37° C. with the Fg1 and Fg1.1.1 peptides at the concentrations of 2.5, 5 and 10 μM for 18 h at 37° C. under 5% CO2. Then, culture supernatant was removed and the IL-8 concentration was measured by ELISA assay (eBioscience).

P. acnes RON strain = assay: Adhesion assay, biotinylated P. acnes binding to fibroblasts (HDF); assay type: cell-based, Propionibacterium acnes; conditions: bacteria pretreated 0.87 to 7 μM, 1 h at 37° C.
Experimental: The bacterial suspension was adjusted at 600 nm to the desired concentration, pretreated with peptides Fg1 and Fg2 at the final concentration ranging from 0.87 to 7 μM for 1 h at 37° C. and deposited on the previously saturated cells with a solution of PBS SVF 2% for 2 h. After incubation for 1 h at 37° C., unbound bacteria are removed by 3 washes with PBS and fixed bacteria are detected by a streptavidin-peroxidase solution of 0.5 μg/ml for 30 min.
(§4) Whole P. acnes bacteria are labelled by biotinylation, pre-treated or not with the peptides and contacted with the various cell lines. After removal of the unfixed bacteria, the adhesion activity was measured spectrophotometrically by using the streptavidin-peroxidase conjugate and a chromogenic substrate.
The ability of P. acnes strains 6919, RON and PIE was tested at 3 concentrations to adhere to various cells lines. It has been shown that the strains of P. acnes tested bound to the three kind of cell lines tested (keratinocytes, monocytes and fibroblast) with a maximum adhesion strength found for keratinocytes (FIG. 11). Knowing that P. acnes is able to recognize fibrinogen, it was used human and bovine whole fibrinogen to compete the interaction between the bacteria and the target cell. […] Then, the ability Fg1 to inhibit the adhesion of bacteria and RON PIE was evaluated on the 3 main types cell. […]

[1] = tested on: HaCaT, NHDK, ThP1, MRC5 and HDF cell lines; assay: Cell viability (MTT) after treatment with Fg1 and Fg2 recombinant peptides; assay type: cell-based, human; conditions: all 5 cell lines; 0.22 to 7 mM for 18 h at 37° C.
Experimental: FIG. 10: Evaluation of cell viability after treatment with the Fg1 and Fg2 recombinant peptides. Human immortalized and primary keratinocyte cell lines HaCaT and NHDK; immortalized monocytes cell line ThP1, and immortalized and primary fibroblast cell lines MRCS and HDF were incubated with Fg1 and Fg2 recombinant peptides with concentrations ranging from 0.22 to 7 mM for 18 h at 37° C. Cell viability was assessed using the MTT assay as described in Materials and Methods.
Crystal violet staining was used to determine the number of adherent cells in 96-well plates. Briefly, after incubation with the test compound, the culture medium was discarded and the cells were incubated with a 0.05% crystal violet solution (Sigma) for 30 min at room temperature. After washing with PBS, 100% methanol was added, and the absorbance was measured spectrophotometrically at 540 nm on an ELISA multiwell reader. The MTT ([…]) assay was performed to test cell viability in 96-well plates. […] After thorough mixing, the absorbance was measured at 540 nm.
as §4

[2] = tested on: monocytes and fibroblasts; assay: TNF-α production by cells stimulated with P. acnes, overall statement; assay type: cell-based, human; conditions: the 3 bacterial tested strains
Experimental: as §1, §2, §3

B1: MKRMVSWSFHKLKTMKHLLLLLLCVFLVKSQGVNDNEEGFFSARGHRPLDKKREEAPSLRPAPPPISGGGYRARPAKAAATQKKVERKAPDAGGCLHADPDLGVLC (protein)
chain: MKRMVSWSFHKLKTMKHLLLLLLCVFLVKSQGVNDNEEGFFSARGHRPLDKKREEAPSLRPAPPPISGGGRARPAKAAATQKKVERKAPDAGGCLHADPDLGVLCMKRMVSWSFHKLKTMKHLLLLLLCVFLVKSQGVNDNEEGFFSARGHRPLDKKREEAPSLRPAPPPISGGGYRARPAKAAATQKKVERKAPDAGGCLHADPDLGVLC
modifications: GST fusion; fragment Fg1
notes: fragment of Bß chain of human fibrinogen having 106 amino acids; recombinant GST-fused peptide expressed in E. coli
NHDK cells
  Inhibition of Interleukine 1 beta (IL-1β) production: pos
HaCaT cells; P. acnes 6919, set I, bacteria first pretreated
  Inhibition of Interleukine 8 (IL-8) production: pos
HaCaT cells; P. acnes 6919, set II, cells first pretreated
  Inhibition of Interleukine 8 (IL-8) production: pos
HaCaT cells; P. acnes PIE, set I, bacteria first pretreated
  Inhibition of Interleukine 8 (IL-8) production: pos
HaCaT cells; P. acnes PIE, set II, cells first pretreated
  Inhibition of Interleukine 8 (IL-8) production: pos
HaCaT cells; P. acnes RON, set I, bacteria first pretreated
  Inhibition of Interleukine 8 (IL-8) production: pos
HaCaT cells; P. acnes RON, set II, cells first pretreated
  Inhibition of Interleukine 8 (IL-8) production: pos
P. acnes RON strain
  Inhibition of adhesion of P. acnes RON strain: inhibits the adhesion of RON strain in a dose-dependent manner
[1]
  Cytotoxic activity (cell viability, MTT): no cytotoxic activity
[2]
  Decrease of the production of TNF-α: dose-response effect on the decrease of the production of TNF-α
